Assay results taken from the supplement of paper PMC10567573.

B1: TCEB3B (parent)
chain: STTALGDKQRKANESKGTRESWDS

Variants of: B1
Assay: protein stability index of a GFP-peptide fusion (GPS, HEK-293T) (PSI 1-6); higher = more stable
Conditions: c terminus: a fixed tail appended
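Also: lentivirally expressed fusions sorted by FACS into six bins by GFP to DsRed ratio, PSI derived from sequencing read proportions per bin multiplied by bin number.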

| Variant | protein stability index |
| --- | --- |
| STTALGDKQRKQNESKGTRESWDS [A12Q] | 3.92 |
| STTALGDKQRKNNESKGTRESWDS [A12N] | 4.2 |
| STTALGDKQRKYNESKGTRESWDS [A12Y] | 3.4 |
| STTALGDKQRKANESKGTRESWYS [D23Y] | 4.07 |
| STTALGDKQRKANESKGTRESWRS [D23R] | 2.13 |
| STTALGDKQRKANESKGTRESWGS [D23G] | 2.83 |
| STTALGDKQMKANESKGTRESWDS [R10M] | 4.03 |
| STTALGDKQAKANESKGTRESWDS [R10A] | 4.13 |
| STTALGDKQDKANESKGTRESWDS [R10D] | 4.76 |
| STTALGDKQIKANESKGTRESWDS [R10I] | 3.6 |
| STTALGDKQLKANESKGTRESWDS [R10L] | 4.28 |
| STTALGDKQYKANESKGTRESWDS [R10Y] | 4.26 |
| STTALGDKQQKANESKGTRESWDS [R10Q] | 4.56 |
| STTALGDKQWKANESKGTRESWDS [R10W] | 3.46 |
| STTALGDKQGKANESKGTRESWDS [R10G] | 4.55 |
| STTALGDKQKKANESKGTRESWDS [R10K] | 4.25 |
| STTALGSKQRKANESKGTRESWDS [D7S] | 3.43 |
| STTALGGKQRKANESKGTRESWDS [D7G] | 3.83 |
| STTALGKKQRKANESKGTRESWDS [D7K] | 4.05 |
| STTALGMKQRKANESKGTRESWDS [D7M] | 3.2 |
| STTALGIKQRKANESKGTRESWDS [D7I] | 3.23 |
| STTALGTKQRKANESKGTRESWDS [D7T] | 3.52 |
| STTALGDQQRKANESKGTRESWDS [K8Q] | 4.16 |
| STTALGDCQRKANESKGTRESWDS [K8C] | 4.12 |

| Variant | protein stability index |
| --- | --- |
| STTALGDEQRKANESKGTRESWDS [K8E] | 4.1 |
| STTALGDHQRKANESKGTRESWDS [K8H] | 3.86 |
| STTALGDTQRKANESKGTRESWDS [K8T] | 3.46 |
| STTALGDWQRKANESKGTRESWDS [K8W] | 4.51 |
| STTALGDDQRKANESKGTRESWDS [K8D] | 4.59 |
| STTALGDSQRKANESKGTRESWDS [K8S] | 4.31 |
| STTALGDGQRKANESKGTRESWDS [K8G] | 4.29 |
| STTALGDPQRKANESKGTRESWDS [K8P] | 3.96 |
| STTALGDKQRKANESKQTRESWDS [G17Q] | 3.88 |
| STTALGDKQRKANESKFTRESWDS [G17F] | 3.97 |
| STTALGDKQRKANESKRTRESWDS [G17R] | 3.97 |
| STTALGDKQRKANESKVTRESWDS [G17V] | 3.55 |
| STTALGDKQRKANESKYTRESWDS [G17Y] | 3.93 |
| STTALGDKQRKANESKNTRESWDS [G17N] | 3.74 |
| STTALGDKQRKANESKWTRESWDS [G17W] | 3.51 |
| STTALGDKQRKANESKITRESWDS [G17I] | 2.92 |
| STTALGDKQRKANESKATRESWDS [G17A] | 3.78 |
| STTALGDKQRKANESKETRESWDS [G17E] | 4.78 |
| STTALGDKQRKANESKGWRESWDS [T18W] | 3 |
| STTALGDKQRKANESKGQRESWDS [T18Q] | 4.03 |
| STTALGDKQRKANESKGYRESWDS [T18Y] | 3.8 |
| STTALGDKQRKANESKGNRESWDS [T18N] | 4.09 |
| STTALGDKQRKANESKGVRESWDS [T18V] | 4.55 |
| STTALGDKQRKANESKGDRESWDS [T18D] | 4.05 |

| Variant | protein stability index |
| --- | --- |
| STTALGDKQRKANESKGFRESWDS [T18F] | 3.46 |
| STTALGDKQRKANESKGPRESWDS [T18P] | 3.22 |
| STTALGDKQRKANESKGTRESWDW [S24W] | 4.59 |
| STTALGDKQRKANESKGTRESWDG [S24G] | 4.89 |
| STTALGDKQRKANESKGTRESWDE [S24E] | 3.93 |
| STTALGDKQRKANESKGTRESWDL [S24L] | 4.37 |
| STTALGDKQRKANESKGTRESWDK [S24K] | 4.17 |
| STTGLGDKQRKANESKGTRESWDS [A4G] | 3.75 |
| STTNLGDKQRKANESKGTRESWDS [A4N] | 4.18 |
| STTILGDKQRKANESKGTRESWDS [A4I] | 3.65 |
| STTMLGDKQRKANESKGTRESWDS [A4M] | 3.54 |
| STTDLGDKQRKANESKGTRESWDS [A4D] | 4.14 |
| STTSLGDKQRKANESKGTRESWDS [A4S] | 3.81 |
| STTVLGDKQRKANESKGTRESWDS [A4V] | 3.96 |
| STTHLGDKQRKANESKGTRESWDS [A4H] | 3.82 |
| STTFLGDKQRKANESKGTRESWDS [A4F] | 3.56 |
| STFALGDKQRKANESKGTRESWDS [T3F] | 3.32 |
| STKALGDKQRKANESKGTRESWDS [T3K] | 3.56 |
| STWALGDKQRKANESKGTRESWDS [T3W] | 3.57 |
| STRALGDKQRKANESKGTRESWDS [T3R] | 3.89 |
| STDALGDKQRKANESKGTRESWDS [T3D] | 3.98 |
| STAALGDKQRKANESKGTRESWDS [T3A] | 3.89 |
| STHALGDKQRKANESKGTRESWDS [T3H] | 4.21 |
| STYALGDKQRKANESKGTRESWDS [T3Y] | 3.77 |

| Variant | protein stability index |
| --- | --- |
| STEALGDKQRKANESKGTRESWDS [T3E] | 4.33 |
| STCALGDKQRKANESKGTRESWDS [T3C] | 3.22 |
| STMALGDKQRKANESKGTRESWDS [T3M] | 4.1 |
| STTALGDKQRKANESKGTRESDDS [W22D] | 5.42 |
| STTALGDKQRKANESKGTRESNDS [W22N] | 5.83 |
| STTALGDKQRKANESKGTRESCDS [W22C] | 5.1 |
| STTALGDKQRKANESKGTRESPDS [W22P] | 5.54 |
| STTALGDKQRKANESKGTRESEDS [W22E] | 5.67 |
| STTALGDKQRKANESKGTRESHDS [W22H] | 5.45 |
| STTALGDKQRKANESKGTRESGDS [W22G] | 5.53 |
| STTALGDKQRKANESKGTRESQDS [W22Q] | 5.47 |
| STTALGDKQRKANESKGTRESKDS [W22K] | 5.7 |
| STTALGDKQRKANESKGTRESADS [W22A] | 5.29 |
| STTALGDKQRHANESKGTRESWDS [K11H] | 4.29 |
| STTALGDKQRMANESKGTRESWDS [K11M] | 3.86 |
| STTALGDKQRTANESKGTRESWDS [K11T] | 4.22 |
| STTALGDKQRDANESKGTRESWDS [K11D] | 4.32 |
| STTALGDKQRAANESKGTRESWDS [K11A] | 4.3 |
| STTALGDKQRIANESKGTRESWDS [K11I] | 4.02 |
| STTALGDKQRVANESKGTRESWDS [K11V] | 4.07 |
| STTALGDKQRFANESKGTRESWDS [K11F] | 3.79 |
| STTALGDKQRSANESKGTRESWDS [K11S] | 4.03 |
